Experimental data published in patent US20240052061A1.

Biological target: T1, human ecto-nucleoside triphosphate diphosphohydrolase-3 (NTPDase3) (human) (UniProt O75355)
T1 sequence (looked up): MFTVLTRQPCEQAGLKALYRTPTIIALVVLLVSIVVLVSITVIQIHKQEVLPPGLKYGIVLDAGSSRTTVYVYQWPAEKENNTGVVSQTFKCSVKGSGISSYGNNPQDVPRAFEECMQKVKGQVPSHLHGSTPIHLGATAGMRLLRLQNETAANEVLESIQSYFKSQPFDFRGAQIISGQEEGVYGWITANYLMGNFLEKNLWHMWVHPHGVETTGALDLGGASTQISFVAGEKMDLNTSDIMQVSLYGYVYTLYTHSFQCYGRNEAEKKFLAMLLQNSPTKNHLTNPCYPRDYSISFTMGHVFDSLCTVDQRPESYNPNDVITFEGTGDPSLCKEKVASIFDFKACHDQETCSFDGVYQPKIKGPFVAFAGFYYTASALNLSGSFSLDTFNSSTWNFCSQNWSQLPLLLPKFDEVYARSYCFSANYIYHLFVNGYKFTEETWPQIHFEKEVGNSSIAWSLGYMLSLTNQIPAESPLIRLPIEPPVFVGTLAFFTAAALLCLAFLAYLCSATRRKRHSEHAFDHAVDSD
Test: cell-based or functional assay

ADCC EC50 (µg/mL), NFAT luciferase reporter Jurkat/hCD16a-158V: 0.047 µg/mL
ADCC fold increase in relation to parental clone at 1 µg/mL: 1.5 fold
CDC EC50: 0.867 µg/mL
Enzyme Activity Inhibition Capacity: % of Maximal Inhibition: 15%
B1: 8E1 hIgG1 (antibody, V domains shown)
VH: EQQLLESGGGLVQPGGSLRLSCAVSGFSLSSYAMGWVRQAPGKGLEFIGIISYSGNTYYASWAKGRFTISKDSSKNTVYLQMNSLRAEDTAVYFCARARYGGYSTNSYYLNIWGPGTLVTVSS
VL: DVQMTQSPSTLSASVGDRVTITCQASENIYRVLAWYQQKPGKRPKLLIYGASNLESGVPSRFSGSGSGTEYTLTISSLQPDDFATYYCQGVVYNSDDSAFGGGTKVEIK
CDC % of Maximal Cytotoxicity: 25%
CDC: fold increase in the maximal CDC cytotoxicity over the parental 8E1 Hu/Ra chimeric clone: 2 fold
